1 molecule from paper PMC8622166 (International Journal of Molecular Sciences, 2021) can be followed below.

In the experiment the target is RAC3 (human, UniProt P60763 1-192). The experiment can be described thus: stopped-flow fluorimetry; association (kobs) at one concentration: 2 µM GDI mixed with 0.2 µM mdGDP-bound RHO GTPase; 25 °C, 30 mM Tris/HCl pH 7.5, 10 mM K2HPO4/KH2PO4 pH 7.5, 5 mM MgCl2, 3 mM DTT. The note with it: both partners purified.

B1: GDI3ΔN20 (domain or fragment, human, UniProt Q99819 21-225, looked up)
chain: LCARVLLADKEGGPPAVDEVLDEAVPEYRAPGRKSLLEIRQLDPDDRSLAKYKRVLLGPLPPAVDPSLPNVQVTRLTLLSEQAPGPVVMDLTGDLAVLKDQVFVLKEGVDYRVKISFKVHREIVSGLKCLHHTYRRGLRVDKTVYMVGSYGPSAQEYEFVTPVEEAPRGALVRGPYLVVSLFTDDDRTHHLSWEWGLCICQDWKD
As for B1, the binding result is “binds”.
